{"source": "paper PMC4705692", "assay_in_all_cases": "EMSA", "key": {"[1]": {"molecular_target": "T1, Orf1 (HTH_42 DNA glycosylase) (Streptomyces sahachiroi ATCC33158, UniProt B4XYC8 1-371)", "T1 sequence": "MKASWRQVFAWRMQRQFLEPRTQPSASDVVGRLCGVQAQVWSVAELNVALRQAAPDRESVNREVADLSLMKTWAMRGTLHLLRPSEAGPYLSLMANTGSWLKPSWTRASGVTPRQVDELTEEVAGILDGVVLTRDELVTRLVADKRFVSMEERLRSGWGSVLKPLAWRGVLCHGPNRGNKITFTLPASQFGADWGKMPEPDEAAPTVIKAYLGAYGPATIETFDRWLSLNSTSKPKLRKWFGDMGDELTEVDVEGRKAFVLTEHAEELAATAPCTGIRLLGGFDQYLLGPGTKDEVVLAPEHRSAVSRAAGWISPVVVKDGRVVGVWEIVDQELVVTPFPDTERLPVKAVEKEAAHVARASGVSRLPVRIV"}, "[2]": {"molecular_target": "T1, Orf1 (HTH_42 DNA glycosylase)", "remark": "listed apart in the source"}, "[3]": {"molecular_target": "T1, Orf1 (HTH_42 DNA glycosylase)", "remark": "listed apart in the source"}}, "note": "Where two headings read alike, the source gives them in different places."}
{"binder": "GCC ODN azinomycin B-adducted (dsDNA, azinomycin B interstrand cross-link G-G at the GCC site (mixture with monoadduct possible)) DNA 1: TATTATTATGCCATTATTATT DNA 2: AATAATAATGGCATAATAATA", "values": [{"measurement": "binding result", "setting": "[1]", "result": "binds"}]}
{"binder": "AAT ODN (dsDNA) DNA 1: TATTATTATATTATTATTATT DNA 2: AATAATAATAATATAATAATA", "values": [{"measurement": "binding result", "setting": "[2]", "result": "binds"}]}
{"binder": "GCT ODN (dsDNA) DNA 1: TATTATTATGCTATTATTATT DNA 2: AATAATAATAGCATAATAATA", "values": [{"measurement": "binding result", "setting": "[2]", "result": "binds"}]}
{"binder": "GAT ODN (dsDNA) DNA 1: TATTATTATGATATTATTATT DNA 2: AATAATAATATCATAATAATA", "values": [{"measurement": "binding result", "setting": "[2]", "result": "binds"}]}
{"binder": "GCC ODN (dsDNA) DNA 1: TATTATTATGCCATTATTATT DNA 2: AATAATAATGGCATAATAATA", "values": [{"measurement": "binding result", "setting": "[3]", "result": "binds"}]}
